Source: the supplement of paper PMC12764529
± gives the half width of the 95% confidence interval.

Legend:
[1] = folding stability dG unfold (combined trypsin and chymotrypsin); higher = more stable
Procedure, shortened: (§1)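 How resistant each design was to proteolysis was captured as K50, inferred by Bayesian fitting of sequencing counts. Unfolding free energy was then derived relative to a sequence-predicted unfolded-state K50 and a shared folded-state K50, per protease or combined. Digestion used trypsin and chymotrypsin at 11 threefold-diluted concentrations plus a no-protease condition, on mini-proteins under 80 residues without cysteine in a PA-tagged cDNA display construct. Designs were kept only when AlphaFold2 dimer inter-PAE was above 15.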

[2] = folding stability dG unfold from trypsin proteolysis; higher = more stable
Procedure, shortened: as §1

[3] = folding stability dG unfold from chymotrypsin proteolysis; higher = more stable
Procedure, shortened: as §1

Sequence	folding stability dG unfold [1]	folding stability dG unfold [2]	folding stability dG unfold [3]
SAGGSAGGSATQTIPFENPDGHPWTGTVEKRPDGMVKIDLTFPGGEKKEFYIPPGEEIRLPFSAGGSAGGSA [r18_115_TrROS]	0.42 ± 0.19 kcal/mol	0.775 ± 0.057 kcal/mol	0.0335 ± 0.24 kcal/mol
SAGGSAGGSAGWIWMKVTEVNPDDGTIKIKFDGQKIKIPAKNMKIREDGDYVEIEIPEDDSAGGSAGGSAGG [r17_403_TrROS]	0.228 ± 0.11 kcal/mol	0.137 ± 0.16 kcal/mol	0.242 ± 0.22 kcal/mol
SAGGKKKVTIEIVYDPEEDYVLIRIRIKDPNGNEREITIRMSRDEIKKLLEELKGKITSIEVRRLPPSAGGS [r16_298_TrROS_Hall]	3.14 ± 0.12 kcal/mol	3.02 ± 0.1 kcal/mol	3.12 ± 0.059 kcal/mol
SAGGMKIEGMTPEEVEALAKALAEAGYEVVSVTVTYDPETDTVTVTVVVRDKKTGEIKKVVTVTLPPSAGGS [r16_750_TrROS_Hall]	2.99 ± 0.072 kcal/mol	3.33 ± 0.1 kcal/mol	2.69 ± 0.069 kcal/mol
SAGGSAGGSAPPLKIVIRIEFPDPNGKKQEYEIPADYPLEQVKDNAEEPFPGAKIENIEVVSAGGSAGGSAG [r3_60_TrROS]	1.21 ± 0.049 kcal/mol	1.02 ± 0.057 kcal/mol	1.33 ± 0.071 kcal/mol
SAGGSAGGSKKPVKVTVTVEVNPETGEITKVTVTEEYKDGTVTVTVTNANGEKLTFTFKIKKPSAGGSAGGS [r12_60_TrROS_Hall]	2.79 ± 0.082 kcal/mol	2.15 ± 0.11 kcal/mol	3.099 ± 0.024 kcal/mol
SAGKKKEEEKKKKEEKKKKEYYLVKVKIKNPNGEEKEIVLKAKSLEEAKKALEKLGLKVEIVEIKPIKVSAG [r5_233_TrROS_Hall]	2.71 ± 0.17 kcal/mol	1.7 ± 0.11 kcal/mol	3.03 ± 0.11 kcal/mol
SAGGSMEVEEFETTDPATGKPYRLRFTYDSETGIPVLEVFAPDGTPLATVPVEPGEAEAARERLGASAGGSA [r2_115_JUSTAS]	0.767 ± 0.058 kcal/mol	0.0239 ± 0.063 kcal/mol	1.14 ± 0.085 kcal/mol
SAGGSAMTPVTIELPFEVEADDPEEAIKKAKELAEKLGLKPVEIKEIEVEPGNPKKVTVLMKATILSAGGSA [r15_183_JUSTAS]	1.6 ± 0.071 kcal/mol	1.74 ± 0.066 kcal/mol	1.36 ± 0.049 kcal/mol
SAGGSAGGDGPGAPPVPRIRIKVEFEHNGKKVTWEFRSLDDMKEQVKERFKENGLKVKITEIEWSAGGSAGG [r6_869_TrROS]	1.88 ± 0.1 kcal/mol	1.67 ± 0.06 kcal/mol	2.04 ± 0.041 kcal/mol
SAGGSMLEKEEGDTLVKTVLQPVPEDLSREVLVTTTTKLLPNGSEVTVTVRSPFTGEPLSSSVVLSSAGGSA [r2_412_JUSTAS]	0.602 ± 0.066 kcal/mol	0.458 ± 0.054 kcal/mol	0.635 ± 0.13 kcal/mol
SAGGSAGGSAGGEPEVEITIEVEERDGELVVRVTARFKDTDETITVEMTLEEVEALLKASAGGSAGGSAGGS [r10_1187_TrROS_Hall]	2.37 ± 0.077 kcal/mol	2.54 ± 0.061 kcal/mol	2.17 ± 0.061 kcal/mol
SAGGSAGGSAGTATLTDPNGVRIEVFPDGTVRATVYRPDPSTGEWKLAATFTFPLHPDAFSAGGSAGGSAGG [r11_497_TrMRF]	1.94 ± 0.066 kcal/mol	1.72 ± 0.027 kcal/mol	2 ± 0.067 kcal/mol
SAGGVYVIKIKFEFGDGLKAELFIMFQSWEQAKEQAENLARNHGLRIDEIEVVPIKPMPPPDPDDQKSAGGS [r8_364_TrROS]	3.63 ± 0.29 kcal/mol	2.46 ± 0.14 kcal/mol	4.13 ± 0.14 kcal/mol
SAGGSAGGSAGGKKVIKVKVRIYPVDGSFEEKEVEAESLEELLEKVLEETHPESLIFIGSAGGSAGGSAGGS [r10_145_TrMRF]	0.59 ± 0.16 kcal/mol	0.912 ± 0.086 kcal/mol	0.14 ± 0.067 kcal/mol
SAGGSAGGTITLPGVTVEITEENGTLTIRVTSPDGRTLTRTITLPAGETVTVTDANGKTVTVRLSAGGSAGG [r6_806_TrROS_Hall]	3.18 ± 0.11 kcal/mol	2.8 ± 0.073 kcal/mol	3.34 ± 0.059 kcal/mol
SDWKIVDIEREGNWYTITIQFKNPDGNPWMVTLYMPPNGPYRVEVYPPGDGKEREVRVPMDDIDEILDAISA [r9_91_TrROS]	2.49 ± 0.11 kcal/mol	1.33 ± 0.053 kcal/mol	2.96 ± 0.038 kcal/mol
SAGMTPEEVAEELREKLGLKEVTIERDPAADTLTITVTLPSPGETKTAVVPASALTPEAIRELLLEVLSSAG [r5_896_JUSTAS]	2.58 ± 0.048 kcal/mol	2.77 ± 0.071 kcal/mol	2.4 ± 0.024 kcal/mol
SAGGSMTLTFTDPSTGTTTTVTKLPNGKYVVTTTTTTSTNPEVSPTGETVGPATTTTTTVLPPAELSAGGSA [r2_195_JUSTAS]	1.86 ± 0.065 kcal/mol	2 ± 0.12 kcal/mol	1.79 ± 0.024 kcal/mol
SAGGSAGGSARIYVTLPDGTVLEVEFEGEEEAERVAEEIEAELKEKGIEPKSITIEPVSPEEGSAGGSAGGS [r12_301_JUSTAS]	1.27 ± 0.16 kcal/mol	0.723 ± 0.053 kcal/mol	1.69 ± 0.075 kcal/mol
SAGGSAGGSMPDLRPAPVPALVIPLDLPLEEAIEKARELLDLPEDTEIPIAEFDPETGKIVIASAGGSAGGS [r12_815_TrMRF]	1.57 ± 0.039 kcal/mol	0.533 ± 0.024 kcal/mol	1.94 ± 0.051 kcal/mol

Sequence	folding stability dG unfold [1]	folding stability dG unfold [2]	folding stability dG unfold [3]
SAGGSIEEIAETLRDLLAPPEYEVDVEVVEVEVDPINPRIKRVRLKATVYPPDGSSREIEFEIPFDELSAGG [r13_215_TrMRF]	1.71 ± 0.062 kcal/mol	1.68 ± 0.042 kcal/mol	1.77 ± 0.029 kcal/mol
SAGGPENARPVTFTVTLPDGDVVPITVTEHPDGTVTVTVTVLRFDGAEPVPATATITVPAEVVRRLFSAGGS [r16_470_TrMRF]	2.48 ± 0.034 kcal/mol	2.15 ± 0.035 kcal/mol	2.636 ± 0.023 kcal/mol
SAGGSATITIEVNGKPITIEFDKKNKTYTITLPNGKKVEVKVVDGELYITFANGEKRKISLKELKPSAGGSA [r15_448_TrROS_Hall]	3.81 ± 0.17 kcal/mol	2.68 ± 0.12 kcal/mol	4.34 ± 0.15 kcal/mol
SAGGGMTTTTVTVTLDVPPDAGEEEVERLAEEIAAELKAAHPNITVTVEKITIDEKNATFTITVTTPGSAGG [r13_805_JUSTAS]	3.03 ± 0.058 kcal/mol	3.19 ± 0.096 kcal/mol	2.928 ± 0.029 kcal/mol
SAGGMVEELDAKDADKIIVGADPDEEVFVLVEVYDDGELLEVVELEPGEEIEIPKDYKVKIVTVPKDLSAGG [r13_978_TrMRF]	-0.293 ± 0.52 kcal/mol	0.119 ± 0.081 kcal/mol	-0.0827 ± 0.63 kcal/mol
SAGPKIELEVDPENPNVARAKVIDPANGEEIDEVEVPVTTLPDGTVLVPAKIKYKGSGKTLELPFTVEGSAG [r5_610_TrMRF]	-0.126 ± 0.28 kcal/mol	-0.4 ± 0.44 kcal/mol	0.133 ± 0.26 kcal/mol
SAGGMVEEVKELAKELGFDVEIELTSVYGEKGYVPYKVTFPNGKTYYITFKGSPDEMKKKLRDLLEKSAGGS [r16_153_TrMRF]	2.82 ± 0.065 kcal/mol	2.2 ± 0.058 kcal/mol	2.99 ± 0.034 kcal/mol
SAGVKELAEEIADEFQKPGWQVEVEVDPGDGTITVQMRMPDYQYEIEIKITPENGKPQVDIKWRPPNDSAGG [r19_2_TrROS]	1.56 ± 0.31 kcal/mol	1.51 ± 0.16 kcal/mol	1.49 ± 0.11 kcal/mol
SAGGSAGGSAGGMLKITITTPGEEREFVIPTPEPEPPGEEEVAKELGLEDVEVEVEEVLESAGGSAGGSAGG [r11_219_JUSTAS]	0.0103 ± 0.12 kcal/mol	0.118 ± 0.04 kcal/mol	-0.0518 ± 0.1 kcal/mol
SAGGKILVPLEVLKEIEEAGLVDEVVENPDGPASLTVTSSKPAKLFGKPVIGFVRRGPDGKPVVEIIPSAGG [r13_163_TrMRF]	0.000122 ± 0.099 kcal/mol	-0.215 ± 0.091 kcal/mol	0.0505 ± 0.13 kcal/mol
SAGGSAGGSAGGSMIVITTEGEEVRNSLPSSYNILETKEDPSVPSYTYDIKKPGTGKEESAGGSAGGSAGGS [r4_435_JUSTAS]	< -1 kcal/mol	-1.55 ± 0.38 kcal/mol	-0.979 ± 0.71 kcal/mol
SAKITKIEINEDGTLTITIEVELPEGMEADELVIFVEVDGKIYEATIKKDGTVEIKLKNIKDLKIYIFKKSA [r9_722_TrROS_Hall]	4.95 ± 0.16 kcal/mol	3.87 ± 0.28 kcal/mol	5.04 ± 0.12 kcal/mol
SAMYVYRARVEVRGPDGELLAEEEIVAESPEELKVAVLERFGLKESEIVRLEVEPVIPLEEFLELLEKGSAG [r14_852_TrMRF]	2.39 ± 0.11 kcal/mol	2.05 ± 0.042 kcal/mol	2.48 ± 0.068 kcal/mol
SAGGSAMRIKDVNPDNGYFRIEPPDNGKPIYELNVEAMKKAQENGDIPPWVRELLNHEPGYRIEPVSAGGSA [r15_359_TrROS]	-0.327 ± 0.15 kcal/mol	-0.979 ± 0.49 kcal/mol	-0.291 ± 0.21 kcal/mol
SAGGSADNLMFMFEFEFSFEWSNPDGEPMTMEVPITVMIPIPIPVPKATPEAMKDPEKAKEAQEEASAGGSA [r15_728_TrROS]	3.39 ± 0.32 kcal/mol	2.39 ± 0.22 kcal/mol	3.51 ± 0.19 kcal/mol
MLLVKAEFTIKNSDGTEETFTVLVEVPESEEEAEEAVEKEIEKIAEEKGLSTENITEIKVEIYPPSEPVKPS [r1_159_JUSTAS]	2.48 ± 0.081 kcal/mol	2.1 ± 0.098 kcal/mol	2.7 ± 0.077 kcal/mol
SAGGSAGGPFKIKITEIFLIPFEPGEMIMIEIRFPNGKVYYIMLQVNPGNGWIWIAIMEIKPPDSAGGSAGG [r6_337_TrROS]	4.74 ± 0.33 kcal/mol	3.91 ± 0.35 kcal/mol	5.1 ± 0.12 kcal/mol
SAGGSAGGSKKKVKVKKFEKTKDADGNEVVKVFFEDDGKVVTLPEELADKLKEDDEFDLEDLASAGGSAGGS [r20_3_TrMRF]	0.139 ± 0.1 kcal/mol	-0.314 ± 0.077 kcal/mol	0.381 ± 0.053 kcal/mol
SAGGSAGGSPKITVDPNTGKVLIEIPGPSGTALIIAEVKDGKITRVDIIGPPELREAIKKLLGSAGGSAGGS [r20_112_TrMRF]	2.08 ± 0.073 kcal/mol	2.19 ± 0.082 kcal/mol	2.04 ± 0.092 kcal/mol
SAGGSAGGMVYITVDIKKTDPLNGTEREEVITVKVNPDEVEKVIEELKSAPVNVEILKVTIIPPSAGGSAGG [r6_151_JUSTAS]	1.56 ± 0.065 kcal/mol	1.75 ± 0.075 kcal/mol	1.4 ± 0.043 kcal/mol
SAGGSAGGMPIPPEVTEISFSKLPNGTYRLTITTKDGKTLTDVTFPPDLDPETAVEAAIATVAASAGGSAGG [r6_436_JUSTAS]	1.5 ± 0.053 kcal/mol	1.45 ± 0.028 kcal/mol	1.48 ± 0.06 kcal/mol
